This note sets out measurements from US20210032351A1 (XDCEXPLORER SHANGHAI, published 2021).

By EC50 is commonly meant the midpoint of the concentration-response curve. High values mean weaker potency, low ones greater potency. By Kd is commonly meant the constant that tells how readily two partners part at equilibrium. One may read the koff as the rate constant with which the complex falls apart. A low value points to a long-lived complex. In general, kon refers to the rate constant with which the complex forms. The low end stands for slower complex formation, the high end for faster complex formation.

The target in assay [1] is T1, human EGFRvIII protein on the surface of U87MG-hEGFRvIII cells (human, UniProt P00533 25-1210). Nature of the assay: cell-based or functional assay.
The target in assay [2] is T2, wild-type human EGFR protein on the surface of cells (A431, HEB, U87MG) (human, UniProt P00533 25-1210).
T2 construct: whole, on cells; One molecule for all three cell lines; the cell line is named under assay; also called wild-type EGFR
The experiment in a line: FACS on A431 cells. The method, then: (§1) The collected cells are suspended to 2×10⁶ cells/mL with an FACS buffer (HBSS+1% BSA, with the percentage being the mass percentage), added to a 96-well FACS reaction plate at 100 μL/well, then added with 100 μL/well of the purified EGFRvIII antibody (samples to be tested) obtained in example 2, and incubated on ice for 2 hours. The plate is centrifugally washed twice with the FACS buffer, added with 100 μL/well of a fluorescence (Alexa 488) labeled secondary antibody (purchased from Invitrogen), and then incubated on ice for 1 hour. The plate is centrifugally washed 3 times with the FACS buffer, added with 100 μL/well of a fixing solution [4% (v/v) paraformaldehyde] for suspending the cells, and centrifugally washed twice with the FACS buffer after 10 minutes. The cells are suspended in 100 μL of the FACS buffer, and the results are detected and analyzed by FACS (FACS Calibur, purchased from BD). Data analysis is performed by using the software (CellQuest) to obtain the mean fluorescence intensity (MFI) of the cells. Data is further analyzed by using the software (GraphPad Prism5) to perform data fitting and calculate EC50. […] A431 cells (human epidermal cell cancer cell lines) have a large amount of wild-type EGFR protein expressed on the surface thereof. […] U87MG cells (human glioma cell lines) have a small amount of wild-type EGFR protein expressed on the surface thereof, while HEB cells (human glioma cell lines) have a high level of wild-type EGFR protein expression on the surface thereof.

For assay [3], the target named is T1, human EGFRvIII protein on the surface …. The experiment in a line: FACS on U87MG-hEGFRvIII cells. The method, then: as §1, with “The cells are washed twice with the HBSS buffer and are counted, and then the cells are diluted with the HBSS buffer to 2×10⁶ cells/ml, added with 1% goat serum blocking solution, with the percentage being the mass percentage, and incubated on ice for 30 minutes, and then centrifugally washed twice with the HBSS buffer. The collected” for “The collected”

Assay [4] concerns the target T3, EGFR-his (purchased from Sino Biological) (UniProt P00533 25-645).
T3 construct: Bought protein; also called EGFR protein; not shown: his tag
Nature of the assay: BLI (OctetRED), antibody on anti-human Fc (AHC) biosensor, EGFR-his in solution. An excerpt: (§2) BLI technology involves: detecting the interaction of the molecules fixed on the sensor with the molecules in the solution, which results in that the biofilm thickness is increased, and the interference spectrum curve is shifted along the direction of increased wavelength, wherein the phase shift of light waves can be detected by workstation in real time, and analyzed to quantitatively obtain the changes in the number of molecules on the sensor surface and related concentration and kinetic data.

The target of assay [5] is T4, EGFRvIII-his (purchased from Sino Biological) (UniProt P00533 25-645).
T4 construct: Bought protein; also called EGFRvIII protein; not shown: his tag
Nature of the assay: BLI (OctetRED), antibody on anti-human Fc (AHC) biosensor, EGFRvIII-his in solution.
Source text: as §2

B1: Murine anti-43H6-MMAF (antibody, V domains shown)
VH: INAEYAGGPGLVKPSQSLSLTCTVTDYSITSDYAWNWIRQFPGNKLEWMGYISYSGNTNYNPSLKSRISITRDTSKNQFFLQLNSVTTEDTATYYCARLGRGFAYWGQGTLVTVSA
VL: DILMTQSPSSMSVSLGDTVSITCHASQDINSNIGWLQQKPGTSFKGLIYHGRNLEDGVPSRFSGSGSGEDYSLTISSLESEDFADYYCVQYAHFPPTFGAGTKLELK
With B1, the “IC50, cell killing of U87MG-hEGFRvIII cells (CellTiter-Glo)” value (“IC50, cell killing” for short) in assay [1] was determined as 0.01 nM.

B2: Murine anti-64B11-MMAF (antibody, V domains shown)
VH: EVQLQQSGAELVKPGASVKLSCTASGFNIKDYYMHWVKQRTEQGLEWIGRIDPEDGETKYAPKFQGKATITADTSSNTAYLQLSNLPSEDTAVYYCGCRTGGFAYWGQGTLVTVSA
VL: DILMTQSPSSMSVSLGDTVSITCHASQGINSNIGWLQQKPGKSFKALIYHGTNLEDGVPSRFSGSGSGADYSLTISSLESEDFADYYCVQYAQFPFTFGSGTELEIK
Turning to B2, the “IC50, cell killing” value in assay [1] was found to be 0.04 nM.

B3: Murine anti-53D8-MMAF (antibody, V domains shown)
VH: QVQLQQSGAELARPGASVKMSCKASGYTFTSYTMHWVKQRPGQGLEWIGYINPSSGYTKYNQIFKDKATLTADKSSSTAYMQLSSLTSEDSAVYYCTRGGGRGFAYWGQGTLVTVSA
VL: DILMTQSPSSMSVSLGDTVSITCHASQDINSNIGWLQQKPGKSFKGLIYHGTNLEDGVPSRFSGSGSGADYSLTISSLESEDFADYYCVQYAQFPFTFGSGTKLEIK
For the molecule B3, in assay [1], the “IC50, cell killing” value is 0.04 nM.

B4: Murine anti-53D8 (antibody, V domains shown)
VH: QVQLQQSGAELARPGASVKMSCKASGYTFTSYTMHWVKQRPGQGLEWIGYINPSSGYTKYNQIFKDKATLTADKSSSTAYMQLSSLTSEDSAVYYCTRGGGRGFAYWGQGTLVTVSA
VL: DILMTQSPSSMSVSLGDTVSITCHASQDINSNIGWLQQKPGKSFKGLIYHGTNLEDGVPSRFSGSGSGADYSLTISSLESEDFADYYCVQYAQFPFTFGSGTKLEIK
notes: Mouse hybridoma antibody; also called 53D8H4
As to B4, the binding result in assay [2] was “no binding”. Further, the response in assay [3] was half-maximal at 6.8 nM (EC50).

B5: Chimeric antibody c75G7C6 (antibody, human IgG1, V domains shown)
VH: EVQLQQSGPELVKPGASVKIPCKASGYTFTDYNMDWVKQSHGKSLEWIGDINPNNGDTIYNQKFKGKATLTVDKSSSTAYMELRSLTSEDTAVYYCARGDYDGYYPVYYAMDYWGQGTSVTVSS
VL: ENVLTQSPAIMSASPGEKVTMTCRASSSVSSSYLHWYQQKSGASPKLWIFSTSNLAAGVPARFSGSGSGTSYSLTVSSVEAEDAATYYCQQYSGYPLTFGAGTKLELK
notes: also called chimeric antibody 75G7
In assay [4], B5 registered an equilibrium dissociation constant (Kd) of 220 nM, a koff of 0.00362 s⁻¹ and a kon of 16500 M⁻¹ s⁻¹. In assay [5], the dissociation constant (Kd) was 1.45 nM, the koff worked out at 0.000132 s⁻¹ and the kon was determined as 91400 M⁻¹ s⁻¹.

B6: Humanized antibody h75G7C6-9 (antibody, human IgG1, V domains shown)
VH: QVQLVQSGAEVKKPGASVKVSCKASGYTFTDYNMDWVRQAPGQGLEWIGDINPNNADTIYNQKFKGRVTLTVDTSTSTVYMELSSLRSEDTAVYYCARGDYDGYYPVYYAMDYWGQGTTVTVSS
VL: EIVLTQSPATLSLSPGERATLSCRASSSVSSSYLHWYQQKPGQAPRLLIYSTSNLAAGIPARFSGSGSGTDFTLTISSLEPEDFAVYYCQQYSGYPLTFGGGTKVEIK
notes: Human IgG1 constant region, human kappa constant region
In assay [4], B6 had a Kd of 215 nM, an off-rate (koff) of 0.00435 s⁻¹ and a kon of 20200 M⁻¹ s⁻¹. In assay [5], this molecule displayed a Kd of 1.77 nM, a koff of 0.000175 s⁻¹ and an on-rate constant (kon) of 98900 M⁻¹ s⁻¹.

B7: Humanized antibody h75G7C6-13 (antibody, human IgG1, V domains shown)
VH: QVQLVQSGAEVKKPGASVKVSCKASGYTFTDYNMDWVKQAPGQGLEWIGDINPNNADTIYNQKFKGRVTLTVDKSTSTVYMELSSLRSEDTAVYYCARGDYDGYYPVYYAMDYWGQGTTVTVSS
VL: EIVLTQSPATLSLSPGERATLSCRASSSVSSSYLHWYQQKPGQAPRLLIYSTSNLAAGIPARFSGSGSGTDFTLTISSLEPEDFAVYYCQQYSGYPLTFGGGTKVEIK
notes: as for B6
In assay [4], B7 showed an equilibrium dissociation constant (Kd) of 211 nM, a koff of 0.00476 s⁻¹ and a kon of 22500 M⁻¹ s⁻¹. In assay [5], this molecule showed a Kd of 1.45 nM, a koff of 0.000181 s⁻¹ and an on-rate constant (kon) of 125000 M⁻¹ s⁻¹.

B8: Murine anti-46C4-MMAF (antibody, V domains shown)
VH: EVHLQQSVAELVRPGASVKLSCTASGFNIKNTYMHWVKQRPEQGLEWIGRIDPANGNTKYAPKFQGKATITADTSSNTAYLQLSSLTSEDTAIYYCASDFDYWGQGTTLTVSS
VL: DVLMTQTPLSLPVSLGDQVSISCRSSQSIVNSNGNTHLEWYLQKPGQSPKVLIYKVSKRFSGVPDRFSGSGSGTDFTLKISRVEAEDLGVYYCFQGSHVPYTFGGGTKLEIK
As for B8, in assay [1], the “IC50, cell killing” value was determined as 0.15 nM.

B9: Murine anti-46C4 (antibody, V domains shown)
VH: EVHLQQSVAELVRPGASVKLSCTASGFNIKNTYMHWVKQRPEQGLEWIGRIDPANGNTKYAPKFQGKATITADTSSNTAYLQLSSLTSEDTAIYYCASDFDYWGQGTTLTVSS
VL: DVLMTQTPLSLPVSLGDQVSISCRSSQSIVNSNGNTHLEWYLQKPGQSPKVLIYKVSKRFSGVPDRFSGSGSGTDFTLKISRVEAEDLGVYYCFQGSHVPYTFGGGTKLEIK
notes: Mouse hybridoma antibody; also called 46C4A6
On to B9, for which the binding result in assay [2] was “no binding”. Further, it took 13.3 nM to reach a half-maximal effect in assay [3] (EC50).

B10: Murine anti-56F10-MMAF (antibody, V domains shown)
VH: EVQLQQSGAELVKPGASVKLSCTASGFNIKDFYMHWVKQRTEQGLEWIGRIDPEDGETKYAPKFQGKATITADTSSNTAYLQLSSLTSEDTAVYYCGCRTGGFAYWGQGTLVTVSA
VL: QIVLTQSPAIMSASPGEKVTMTCSASSSVSYLYWYQQKPGSSPSLLIYDTSNLASGVPVRFSGSGSGTSYSLTISRMEAEDAATYYCQQWSRNPWTFGGGTKLEIK
Consider B10, for which the “IC50, cell killing” value in assay [1] was 0.15 nM.

B11: Murine anti-59G3-MMAF (antibody, V domains shown)
VH: DVQLQESGPGLVKPSQSLSLTCSVTGYSITSGYYWHWIRQFPENKLEWMGYISYDGSNIYNPSLKNRISITRDTSKNQFFLKLNSVTTEDTATYYCAINSDYALDYWGQGTSVTVSS
VL: QIVLTQSPAIMSASPGEKVTMTCSASSSVSYMYWYQQKPGSSPRLLIYDTSNLASGVPVRFSGSGSGTSYSLTISRMEAEDAATYYCQQWSSYSLTFGAGTKLELK
On to B11, for which the “IC50, cell killing” value in assay [1] came to 0.06 nM.

B12: Murine anti-49G12-MMAF (antibody, V domains shown)
VH: EVQLLQSGAELVKPGASVKLSCTASGFNIKDYYMHWVKQRTEQGLEWIGRIDPEDGETKYAPKFQGKATMTADTSSNTAYLQLSSLTSEDTAVYYCASSAYYGRNYWGQGTTLTVSS
VL: QIVLTQSPAIMSASPGEKVTLTCSASSSLSSSYLYWYQQKPGSSPKLWIYSTSNLASGVPARFSGSGSGTSYSLTISSMEAEDAASYFCHQWSSYPYTFGGGTKLEIK
On to B12, for which the “IC50, cell killing” value in assay [1] came to 0.02 nM.

B13: Murine anti-7E5-MMAF (antibody, V domains shown)
VH: EIQLQQSGPELVKPGASVKVSCKASGYSFTDYNMYWVKQSHGKSLEWIGYVDPSNGGTNYNQKFKGKATLTVDKSSSTAFMHLNSLTSEDSAVYYCARGFFDYWGQGTTLTVSS
VL: DIVMTQSPSSLTVTAGEKVTMSCKSSQSLLNSGNQKNYLTWYQQKPGQPPKLLIYWASNRESGVPDRFTGSGSGKDFTLTISSVQAEDLAVYYCQNDYRYPVTFGAGTKLELK
Consider B13, for which the “IC50, cell killing” value in assay [1] is 0.02 nM.
